This note sets out measurements from publication PMC6162344.

One assay addresses CENP-OPQU (human) (UniProt Q9BU64). Briefly: AUC.
Assay [1] concerns the target Taxol-stabilised microtubules (TIRF) (pig) (UniProt P02550). As to the kind of experiment: TIRF microscopy of single particles on microtubules.

Chain of CENP-OPQU (Q9BU64 whole entry): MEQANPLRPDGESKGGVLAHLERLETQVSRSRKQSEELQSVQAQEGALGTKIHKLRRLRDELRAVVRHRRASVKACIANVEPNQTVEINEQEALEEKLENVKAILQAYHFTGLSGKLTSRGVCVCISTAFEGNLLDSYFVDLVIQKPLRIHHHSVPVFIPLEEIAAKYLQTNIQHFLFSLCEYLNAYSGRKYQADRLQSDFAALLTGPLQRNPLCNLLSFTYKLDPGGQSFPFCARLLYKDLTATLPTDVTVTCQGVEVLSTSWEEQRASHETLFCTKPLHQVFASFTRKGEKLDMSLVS
Chain of CENP-OPQU (Q6IPU0 whole entry): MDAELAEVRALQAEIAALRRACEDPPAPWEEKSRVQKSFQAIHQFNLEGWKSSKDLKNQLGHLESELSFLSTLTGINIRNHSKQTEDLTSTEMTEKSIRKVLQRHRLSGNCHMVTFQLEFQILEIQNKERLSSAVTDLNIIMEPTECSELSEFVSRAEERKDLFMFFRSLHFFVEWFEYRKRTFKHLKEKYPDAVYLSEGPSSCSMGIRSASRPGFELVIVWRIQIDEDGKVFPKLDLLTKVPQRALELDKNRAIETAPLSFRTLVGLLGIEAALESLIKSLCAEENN
Chain of CENP-OPQU (Q7L2Z9 whole entry): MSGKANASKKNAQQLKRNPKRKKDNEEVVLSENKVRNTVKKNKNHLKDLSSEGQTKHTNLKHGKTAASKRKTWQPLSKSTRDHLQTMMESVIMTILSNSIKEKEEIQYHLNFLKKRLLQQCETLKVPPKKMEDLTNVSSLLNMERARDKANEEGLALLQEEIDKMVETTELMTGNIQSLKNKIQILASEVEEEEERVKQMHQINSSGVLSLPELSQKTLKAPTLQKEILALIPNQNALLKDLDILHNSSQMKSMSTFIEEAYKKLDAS
Chain of CENP-OPQU (Q71F23 whole entry): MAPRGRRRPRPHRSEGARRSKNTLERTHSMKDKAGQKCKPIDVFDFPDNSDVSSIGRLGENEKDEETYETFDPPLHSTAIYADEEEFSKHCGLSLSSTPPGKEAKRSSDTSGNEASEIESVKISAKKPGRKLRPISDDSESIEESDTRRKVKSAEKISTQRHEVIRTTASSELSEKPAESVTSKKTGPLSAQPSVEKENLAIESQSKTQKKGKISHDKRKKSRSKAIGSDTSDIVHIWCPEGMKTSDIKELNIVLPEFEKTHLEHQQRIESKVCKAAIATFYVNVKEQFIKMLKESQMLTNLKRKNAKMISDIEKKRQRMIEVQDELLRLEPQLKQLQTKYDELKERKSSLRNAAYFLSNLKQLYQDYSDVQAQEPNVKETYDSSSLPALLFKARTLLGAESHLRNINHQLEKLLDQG
Chain of CENP-OPQU (human) (Q9BU64 whole entry, chain 1 of 4): as the sequence (Q9BU64 whole entry) above
Chain of CENP-OPQU (human) (Q6IPU0 whole entry, chain 2 of 4, further chain): as the sequence (Q6IPU0 whole entry) above
Chain of CENP-OPQU (human) (Q7L2Z9 whole entry, chain 3 of 4, further chain): as the sequence (Q7L2Z9 whole entry) above
Chain of CENP-OPQU (human) (Q71F23 whole entry, chain 4 of 4, further chain): as the sequence (Q71F23 whole entry) above

In turn, “CENP-R (co-expressed or co-lysed with CENP-OPQU subunits) (from UniProt Q13352 1-177) (natural protein)” registered a stoichiometry N with CENP-OPQU (human) of 1.

For the substance “CENP-OPQU (from UniProt Q9BU64 1-300; Q6IPU0 1-288; Q7L2Z9 1-268; Q71F23 1-418) (complex)”, in assay [1], the mean time associated was 131 s.
